Source: article PMC2729104 (Nature immunology, 2009)

Assays:
[1] = biological target: protease fragment Bb of factor B (from plasma-purified FB) (human, UniProt P00751 260-764); test: pull-down
[2] = biological target: protease fragment Bb of factor B (from recombinant FB) (human, UniProt P00751 260-764); test: crystal structure
Chain of protease fragment Bb of factor B (from recombinant FB) (P00751 260-764): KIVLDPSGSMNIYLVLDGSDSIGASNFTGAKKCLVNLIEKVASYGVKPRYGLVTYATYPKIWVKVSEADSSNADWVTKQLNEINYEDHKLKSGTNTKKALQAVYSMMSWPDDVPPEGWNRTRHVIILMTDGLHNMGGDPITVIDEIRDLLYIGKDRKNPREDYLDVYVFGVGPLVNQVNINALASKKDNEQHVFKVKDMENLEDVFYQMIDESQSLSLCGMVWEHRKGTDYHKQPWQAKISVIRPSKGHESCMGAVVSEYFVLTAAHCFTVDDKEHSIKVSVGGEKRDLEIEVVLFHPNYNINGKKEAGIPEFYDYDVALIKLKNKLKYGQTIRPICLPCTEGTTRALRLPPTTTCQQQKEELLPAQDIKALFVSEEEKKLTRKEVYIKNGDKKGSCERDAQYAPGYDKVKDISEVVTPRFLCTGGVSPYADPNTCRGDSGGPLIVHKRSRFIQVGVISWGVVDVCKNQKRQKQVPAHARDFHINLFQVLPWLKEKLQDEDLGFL

Chain of protease fragment Bb of factor B (from plasma-purified FB) (P00751 260-764): as above

B1: SCIN protein with an N-terminal His6 tag (natural protein, Staphylococcus aureus)
chain: STSLPTSNEYQNEKLANELKSLLDELNVNELATGSLNTYYKRTIKISGQKAMYALKSKDFKKMSEAKYQLQKIYNEIDEALKSKY
[1]
  binding result: binds
[2]
  binding result: binds
